Assay results: US20060140946A1 (published 2006)

B1: p55-sf2 TNF receptor/IgG1 fusion protein (Fc fusion)
chain: QVCPQGKYIHPQNNSICCTKCHKGTYLYNDCPGPGQDTDCRECESGSFTASENHLRHCLSCSKCRKEMGQVEISSCTVDRDTVCGCRKNQYRHYWSENLFQCFNCSLCLNGTVHLSCQEKQNTVCTCHAGFFLRENECVSCSNCKKSLECTKLCLPQIPGTLVTVSS
B2: p75P-sf2 TNF receptor/IgG1 fusion protein (Fc fusion)
chain: QLPAQVAFTPYAPEPGSTCRLREYYDQTAQMCCSKCSPGQHAKVFCTKTSDTVCDSCEDSTYTQLWNWVPECLSCGSRCSSDQVETQACTREQNRICTCRPGWYCALSKQEGCRLCAPLRKCRPGFGVARPGTETSDVVCKPCAPGTFSNTTSSTDICRPHQICNVVAIPGNASMDAVCTSTSGTLVTVSS

Target: human tumor necrosis factor-alpha (hTNFα) (human, UniProt P01375 77-233)
Sequence (P01375 77-233): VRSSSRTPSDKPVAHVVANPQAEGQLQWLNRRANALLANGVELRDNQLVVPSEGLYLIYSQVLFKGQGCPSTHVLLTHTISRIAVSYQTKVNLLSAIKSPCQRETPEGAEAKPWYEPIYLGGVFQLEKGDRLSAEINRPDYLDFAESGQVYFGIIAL
Experiment: cell-based or functional assay

Binder	IC50: concentration of fusion protein required to inhibit 2 ng/ml (39.2 pM) TNFα by 50%, WEHI 164 cytotoxicity assay [pM]
B1	70
B2	70
